Measured values taken from the nanobody polyreactivity screen of Harvey et al. (2022).

Assay: yeast display, Sf9 membrane polyspecificity reagent, FACS + sequencing; frameworks hold sequencing errors
Outline: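 Galactose-induced (36–48 hours) yeast carrying a synthetic nanobody display library were exposed to 10% biotinylated, detergent-solubilized Sf9 membrane reagent at 4 °C for 1 hour. FACS followed streptavidin microbead enrichment, using low and high (top ~1%) gates for expression (anti-HA) and reagent binding (streptavidin). Colony PCR, MiSeq 2 × 250 sequencing and CDR-length filtering followed. Labels for polyreactivity reflect the gate of origin.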

Q: For “QVQLVESGGGIVQAGGSLRLSCAASGRTFKVNAMGWYIQAPGKEREFVAAITWNSGSSTYYADSVKGRFTISRDNAKNTVYLQMNSLKPEDTAVYYCAARSAGRYWNYYWGQGTQVTVSS”, which “polyreactivity (PSR sort gate)” value is on record?
A: The value was “high polyreactivity”.

Q: For “QVQLVESGGGLVQAGGSLRLSCAASGSIFYPYAMGWYRQAPGKERELVAAIRFSGGRTYYADSVKGRFTISRDNAKNTVYLQMNSLKPEDTAVYYCAAEYYGIYSPYDYWGQGTQVTVSS”, which “polyreactivity (PSR sort gate)” value is on record?
A: The value was “high polyreactivity”.

Q: With “QVQLVESGGGLVQAGGSLRLSCDASGNTFRGYAMGWYRQAPGKERELVAAITSGGRTYYADSVKGRFTISRDNAKNTVYLQMNSLKPEDTAVYYCNAVLGRYVTYNYWGQGTQVTVSS” as the sequence, how does the “polyreactivity (PSR sort gate)” value read?
A: The value was “high polyreactivity”.

Q: With “QVQLVESGGGLVQAGGSLRLSCAASGGIFRSYAMGWYRQAPGKETELVAAISWSTVSTYADSVKGRFTISRDNAKNTVYLQMYSLKPEDSAVYYCAASPFEYCYYYYGLYKEYYYWGQGNQVTVSS” as the sequence, how does the “polyreactivity (PSR sort gate)” value read?
A: Its value is “low polyreactivity”.

Q: Which “polyreactivity (PSR sort gate)” value does the source give for “QVQLQESGGGLVQAGGSLRLSCAASGYISYFVGMGWYRQAPGKEREFVASIADGSNTYYADSVKGRFTISRDNAKNTVYLQRNSLKQEDTAVYYCAVEDSWTYRFDYWGQGTQVTVSS” here?
A: Its value is “high polyreactivity”.

Q: For “QVQLVESGGGLVQAGGSLRLSCAASGITFPSYAMGWYRQAPGKERELVATISRGDSTYYADSVKGRFTISRDNAKNTVYLQMNSLKPEDTAVYYCATRAYRLDPLQHDYWGQGTQVTVSS”, which “polyreactivity (PSR sort gate)” value is on record?
A: Its value is “low polyreactivity”.

Q: Which “polyreactivity (PSR sort gate)” value does the source give for “QVQLVESGGGLVQAGGSLRLSCASSGSTFNPYAMGWYRQAPGKERELVAAISRGGRTKYADSVKGRFSISRDNAKNTVYCHMNSLKPEDTAVYYCAARQRSRSRYDYWGQVTQVTVSS” here?
A: Its value is “high polyreactivity”.

Q: With “QVQLVESGGGLVQEGGSLRLICAASGSTFIYNAMGWYRQAPGKERELVASISTSGGSTYYADSVKGRFTISRDNAKNTVYFQMNSLIPEDTAVYYCAKRYFFKYGYWGQGTQVTVSS” as the sequence, how does the “polyreactivity (PSR sort gate)” value read?
A: Its value is “high polyreactivity”.

Q: Which “polyreactivity (PSR sort gate)” value does the source give for “QFQHVESGGGLVQARGSRRLSCAASGRTLYRNAMGWYRPARGKERELVAAITSGGHTKYADSVKGRFTISRDNAKNTVYLQMNSLKPVDTAVYYCNARYIRYSVGFLYTRYDYCGQGTQVTVSS” here?
A: Its value is “high polyreactivity”.

Q: Which “polyreactivity (PSR sort gate)” value does the source give for “QVQLVESGGGLVQAGGSLRLSCAASGFTFVFNARAWYRQAPGKERELVATITNGGSTYYADSVKGRFTISRDNAKNTVYLQMNSLKPEDTAVYYCAAVRKQCSGFDYWGQGTQVTVSS” here?
A: The value was “high polyreactivity”.

Q: With “QVQLVESGGGVVQAGGSLRLSCAASGNIFFGNAMGWYRQAPGKERELVAAITKRGGSTYYADSVKGRFTISRDNAKNTVYLQMNSLKPEDTAVYYCAAVSYSKRTWSMNYWGQGTQVTVSS” as the sequence, how does the “polyreactivity (PSR sort gate)” value read?
A: Its value is “high polyreactivity”.

Q: For “QFQIVESGGGLVQAGGSLRLSCAASGSTFRTNAMGWYRQAPGKERELVARIRYSVGSTYYADSVKGRFTISRDNAKNTVYLQMNSLKPEDTAVYYCAAENQRVGTFREHDSWGQGTQVTVSS”, which “polyreactivity (PSR sort gate)” value is on record?
A: The value was “low polyreactivity”.

Q: Which “polyreactivity (PSR sort gate)” value does the source give for “QVQLVESGGGLVQAGGSLRLSCAASGSIFGRNTMGWYRQAPGKERELVAAISSRGTSTYYADSVKGRFTISRDNAKNTVYLQMNSLKPEDTAVYYCAARVYPYNYWGQGTQVTVSS” here?
A: The value was “high polyreactivity”.

Q: For “QVQLVESGGGLVQAGGSLRLSCAASGNAMGWYRQAPGKERELVAAITYGGTTTYYADSVKGRFTISRDNAKNTVYLQMNSLKPEDTAVYYCAADYVFVATPLRYDYWGQGTQVTVSS”, which “polyreactivity (PSR sort gate)” value is on record?
A: The value was “low polyreactivity”.

Q: With “QVQLVESGGGLVQAGGSLRLSCAASGSIFLYYVMGWYRQAPGKERELVAAITWDGGSTYYADSVKGRFTISRDNAKNTVYLQMNSLKPEDTAVYYCNKDTTYSYYTEPYDYWGQGTQVTVSS” as the sequence, how does the “polyreactivity (PSR sort gate)” value read?
A: The value was “low polyreactivity”.

Q: For “QVQLVESGKGLVQAGGSLRLSCAASGITITIYAMGWYRNAPGKERELVAAITWRGGRTYYADSVKGRFTISRDNAKNTVYLQMNSLKPEDTAVYYCNALFGSYPYYWFEYWGHGTQVTVSS”, which “polyreactivity (PSR sort gate)” value is on record?
A: The value was “high polyreactivity”.

Q: Which “polyreactivity (PSR sort gate)” value does the source give for “QVQLVESGGGLVQAGGSLRLSCAASGRIFWDNAMGWYRQAPGKERELVAAITFSGGSTYYADSVKGRFTISRDNAKNTVYLQMNSLKPEDTAVYYCAKGEWVYWRPWYEYWGQGTQVTVSS” here?
A: Its value is “low polyreactivity”.

Q: With “QVQLVESGGGLVQAGGSLRLSCAASGRIFYRYTMGWYRQAPGKERELVAVIRSGGRTYYADSVKGRFSISRDNAKNTLSLQMNSLKPEDTSVYYCATLVRVLTLRSDLNLYGYWGQGTQVTVSS” as the sequence, how does the “polyreactivity (PSR sort gate)” value read?
A: The value was “high polyreactivity”.

Q: Which “polyreactivity (PSR sort gate)” value does the source give for “QVQLVETGRGLVQAGGSLRLSCAASGSTFGSYAMGWYRPAPGKEREFVATISRSGGRTYYAASVKGRFTISRDNAKNTVYFQMNSLKPEDTAVYYCATDRRYWIGYDYWGQGTQVTVSS” here?
A: Its value is “high polyreactivity”.

Q: Which “polyreactivity (PSR sort gate)” value does the source give for “QVQLVESGGGLVQAGGSLRLSCAASGSIFYVYAMGWYRQAPGKERELVAAITNYADSVKGRFTISRDNAKNTVYLQMNSLKPEDTAVSYCAADWWRVEMDYWGQGTQVTVSS” here?
A: The value was “low polyreactivity”.

Q: Which “polyreactivity (PSR sort gate)” value does the source give for “QVHLVESGGGLVQAGGSLRLSCAASGFIFYPYAMGWYRQAPGKERELVAAITSSGGSTYYADSVKGRFTISRDNAKNTVYLQMNSLKPEDTAVYYCAAYTSYYGTIIAYRYYYWGQGTQVTVSS” here?
A: Its value is “high polyreactivity”.

Q: With “QVQLVESCGGLVKAGGSLRLSCDASGSTFYNNAMGWYRQAPGKERELVAVITSGGGSTYYADSVKGRFTISRDNAKNTVYLQMNSLKPEDTAVYYCAAKRPFYKYLWLDVRGNYWGQGTQVTVSS” as the sequence, how does the “polyreactivity (PSR sort gate)” value read?
A: The value was “low polyreactivity”.

Q: Which “polyreactivity (PSR sort gate)” value does the source give for “QGQLVESGGGLVQAGGSLRLSCAASGFSYGFYAMGWYRQAPGKERELVASNSNGDSTNYADSVKGRFTISRDNAKNTVYLQMNSLKPEDTAVYYCATYGGYNPSPLYWGQGTQVTVSS” here?
A: Its value is “high polyreactivity”.

Q: With “QVQLVESGGGLVQAGGSLRISCAASGRTFGPNAMGWYIKAPGKERELVAAIRYSGGSTYYADSVKGRFTISRDKAKNTVYLQMNSLKPEDTAVYYCAADYVSYVGERGTLYVRYDYWGQGTQVTVSS” as the sequence, how does the “polyreactivity (PSR sort gate)” value read?
A: The value was “high polyreactivity”.

Q: For “QVQLVESGGGLVQAGGSLRLSCAASGSIFAPYAMGWYRQAPGKERELVAAINNNGGRTYYADSVKGRFTISRDNAKNTVYLQMNSLKPEDTAVYYCAKELGYDWYYRPYGYWGQGTQVTVSS”, which “polyreactivity (PSR sort gate)” value is on record?
A: The value was “low polyreactivity”.

Q: With “QVQLVESGGGLVQAGGSLRLSCAASGNTLIQYAMGWIIQAPGKEREVLAGISGTDDSTYYADSVKGRFTISRDNAKNTVYFQMTSLKPEDRSVYYCATREWYDKYPNIYVSFDYWGQGTQVTVSS” as the sequence, how does the “polyreactivity (PSR sort gate)” value read?
A: Its value is “low polyreactivity”.

Q: Which “polyreactivity (PSR sort gate)” value does the source give for “QVQVVESGGGLVQAGGSLRLSCAASGITFWGYAMGWYRQAPGKERELVAAITRTGSTYYADSVKGRFTISRDNAKNTVYLQMNSLKPEDTALYYCAAYTPNASTYRRKSSKKVYYWGQGTQVTVSS” here?
A: The value was “high polyreactivity”.

Q: For “QVQLVESGGGLVQAGGSLRLSCAASGSILPDYAMGWYRQAPGKERELVASITNSGDSTYYADSVKGRFTISRDNAKNPVYLQMNSLKPEDTAVYYCNADSVRYDYSANDYEYWGQGSQVTVSS”, which “polyreactivity (PSR sort gate)” value is on record?
A: The value was “high polyreactivity”.

Q: Which “polyreactivity (PSR sort gate)” value does the source give for “QVQLVESGGGLVQAGGSLRFSCAASGRIFRFYAMGWYRQAPGKERELVAAISSRGGSTYYADSVKGRFTISRDNAKNTVYLQMNSLKPEDTAVYYCNAYGSTSQLDYWGQGTQVTVSS” here?
A: The value was “high polyreactivity”.

Q: Which “polyreactivity (PSR sort gate)” value does the source give for “QVQLVESGGVLVQAGGSLRLSCAASGRTFRRNAMGWYRQAPGKERELVAGIRSSGGSTYYADSVKGRFTISRDNAKNTVYLQINSLKQEDTAVYYCNAVGRPRYGHGFDHWGQGTQVTVSS” here?
A: Its value is “high polyreactivity”.

Q: For “QVQLVESRGGLVQAGGSLRLSCATSGIFVVYALGWYRQAPGKVRELVAAISSGVSTSYADSVKGRFTISRENAKNTVYLQMNSLKPEDTAVYYCNTLWGHKFIVPFRTREFYYWGQGTQVTVSS”, which “polyreactivity (PSR sort gate)” value is on record?
A: Its value is “low polyreactivity”.
